Legend:
[1] = target: T1, human recombinant CCDC3 protein (human, UniProt Q9BQI4 22-270); assay: displacement ELISA: captured antibody, unlabelled human recombinant CCDC3 (0.01 to 100 nM) against biotin-human recombinant CCDC3
T1 construct: Secreted from Freestyle293 cells, purified from culture supernatant, 3xFlag tag removed with thrombin (31 kDa); the C-terminus at 270 follows from the C-terminus peptide 259-270; Also used biotin-labelled (PEO-maleimide biotin) as tracer; also called human CCDC3 recombinant protein; human CCDC3 protein
T1 sequence: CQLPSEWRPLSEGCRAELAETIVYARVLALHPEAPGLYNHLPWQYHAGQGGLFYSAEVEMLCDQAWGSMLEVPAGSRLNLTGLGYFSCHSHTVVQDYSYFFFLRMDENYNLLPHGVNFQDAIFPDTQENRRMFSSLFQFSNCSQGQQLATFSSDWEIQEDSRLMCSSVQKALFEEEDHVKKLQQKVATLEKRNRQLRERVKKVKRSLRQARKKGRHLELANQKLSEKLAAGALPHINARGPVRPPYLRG
Method: A buffer A containing 10 μl of CCDC3 antibody was added to the anti-mouse IgG antibody-anchored plate, and 10 μl of 0.01 to 100 nM human recombinant CCDC3 was added. The mixture was allowed to react at 4° C. for 16 hours after adding buffer A (10 μl) that contained 1 ng of biotin-human recombinant CCDC3 protein and 4 ng of Streptavidin-HRP (PIERCE). Each well was washed three times with washing liquid (90 μl), and 25 μl of TMB+Substrate-Chromogen (DAKO) was added to develop color at room temperature for 30 min. The reaction was stopped by adding 25 μl of 0.5 M sulfuric acid, and absorbance at 450 nm was measured.

[2] = target: T2, human CCDC3 protein C-terminus partial peptide (259-270) (human, PEO-maleimide activated biotin on the added N-terminal Cys); assay: raised against the peptide-KLH; hybridoma screened by ELISA on the biotin-labelled peptide
T2 construct: the immunogen was the 12 mer conjugated to KLH; also called biotin-human CCDC3 protein C-terminus region peptide
Method: Specific antibody producing cells were screened 10 days after the cells were fused. Screening was performed by ELISA, as follows. A Tris buffer (50 mM Tris-HCl, pH 7.5, 35 μl) containing anti-mouse IgG antibodies (0.35 μg; Shibayagi Co., Ltd.) was added to each well of a 384-well microtiter plate (Nunc), and the antibodies were immobilized at 4° C. for 16 hours. The wells were washed once with 90 μl of washing liquid (physiological saline containing 0.01% Tween 20), and left unattended at room temperature for 2 hours for blocking after adding […] of Block Ace (Dainippon Pharma) (anti-mouse IgG antibody-anchored plate). After washing each well once with washing liquid (90 μl), a hybridoma culture supernatant (15 μl) and buffer A (10 μl; 50 mM Tris buffer containing 0.5% bovine serum albumin, 0.01% Tween 80, 0.05% Proclin 150, and 0.5 M NaCl; pH 7.4) were added. When the immunogen was the peptide-KLH conjugate, buffer A (10 μl) containing 0.02 ng of the biotin-human CCDC3 protein C-terminus region peptide and 2 ng of Streptavidin-HRP (PIERCE) was added. When the immunogen was the human recombinant CCDC3 protein or its KLH-conjugate, buffer A (10 μl) containing 1 ng of the biotin-human recombinant CCDC3 protein and 4 ng of Streptavidin-HRP (PIERCE) was added. […] The reaction was stopped by adding 25 μl of 0.5 M sulfuric acid, and absorbance at 450 nm was measured.

B1: 6G12 antibody (antibody, IgG1, V domains shown)
VH: QVQLQQPGAELVRPGASVKMSCKASGYTFSSYLMDWVKQRPGQGFECIGNINPNTGSTIYNERFKGKAKLTVDKSSSTAYMQLISLTSEDSAVYYCAADGYYAPFTYWGQGTLVTVSA
VL: DIVMTQAAPSVPVTPGESVSISCRSSKSLLHNNGNTYLYWFLQRPGQSPQLLIYRMSNLASGVPDRFSGSGSGTAFTLRISRVEAEDVGVYYCMQHLEYPFTFGAGTKLELKR
notes: Mouse hybridoma monoclonal, isotype IgG1; From a mouse immunized with antigen 3 (human recombinant CCDC3); Used biotinylated as capture antibody in the sandwich ELISA; also called human anti-CCDC3 antibody 6G12
[1]
  IC50: 3.2 nM

B2: 3H6 antibody (antibody, IgG2b, V domains shown)
VH: QIQLVQSGPELKKPGETVKISCKASGYTFTNYGMIWVKQAPGKDLKWMAWINTYSGEPTCADDFKGRFAFSLETSASTAYLQINNLKNEDMATYFCARDDGYYGYFDYWGQGTTLTVSS
VL: DVVMTQTPLSLPVSLGDQASISCRSSQTLVHSDGNTYLHWYLQKPGQSPKLLIYKISNRFSGVPDRFSGSGSGTDFTLKISRVEAEDLGVYFCSQSTHVPPTFGGGTKLEIKR
notes: Mouse hybridoma monoclonal, isotype IgG2b; From a mouse immunized with antigen 1 (human CCDC3 C-terminus peptide 259-270 conjugated to KLH); Used biotinylated as capture antibody in the sandwich ELISA; also called human anti-CCDC3 antibody 3H6
[2]
  binding result: binds
[1]
  IC50: 9.4 nM

B3: 11E10 antibody (antibody, IgG2b, V domains shown)
VH: QVQLQQSGPELVKPGASVKISCKASGYSFRSYYIHWMKQSPGQGLEWIAWIYPGGGKIYYNDNEKFKDKVTLTADTSSSTAYMQLTGLTSEDSAVYFCARWGGYYVGSILDYWGQGTSVTVSS
VL: DGDIVMTQSQKFLSTSVGDRVSVTCKASQNVDNNVAWYQQRPGQSPKPLIYLTSSRYSGVPDRFTGSGSGTDFTLTITNVQSEDLAEYFCQQYKTYPLTFSVGTKLELKRA
notes: Mouse hybridoma monoclonal, isotype IgG2b; From a mouse immunized with antigen 2 (human recombinant CCDC3-KLH conjugate); also called human anti-CCDC3 antibody 11E10
[1]
  IC50: 0.1 nM
